Consider one protein from PMC5500548, “Facile Control over the Supramolecular Ordering of Self-assembled Peptide Scaffolds by Simultaneous Assembly with a Polysacharride” (Scientific Reports, 2017).

No end group written: not given here. *: point of attachment. Fmoc = O=C(OCC1c2ccccc2-c2ccccc21)*

The data set concerns the molecule itself. In words: transmission electron microscopy + atomic force microscopy; hydrogel of 10 mg/mL Fmoc-FRGDF formed by pH switch to pH 7.4, PBS; dried, negatively stained (TEM) or on HOPG (AFM).

B1: Fmoc-FRGDF (peptide)
peptide: Fmoc-FRGDF
notes: the Fmoc group is kept on the N-terminus; Low molecular weight gelator; also called Fluorenylmethoxycarbonyl (Fmoc) pentapeptide; SAP; source: synthetic peptide (solid phase Fmoc peptide synthesis)
On to B1, for which the binding result was “binds”.
